{"source": "paper PMC11310207", "about": "(Scientific Reports, 2024)", "key": {"[1]": {"target": "human neurolysin (hNln), Ser38-Pro704, N-terminal 6xHis-tag, used in the activity assays (human, UniProt Q9BYT8 38-704)", "experiment": "enzyme inhibition"}, "[2]": {"target": "rNln (Met37–Ser704), C-terminal 6xHis-tag, catalytically active (UniProt P42676 37-704)", "experiment": "fluorescence polarisation"}}, "note": "Square brackets hold non-standard residues; d marks the D form. Ends that are not written are not given here. * marks the point of attachment. Dnp = O=[N+]([O-])c1ccc(*)c([N+](=O)[O-])c1; Mca = COc1ccc2c(CC(=O)*)cc(=O)oc2c1"}
{"binder": "YGGFLRR", "note": "[dynorphin A (1–7)]", "values": [{"measurement": "binding result", "setting": "[1]", "value": "binds"}]}
{"binder": "YGGFLRRIRPKL", "note": "[dynorphin A (1–12)]", "values": [{"measurement": "Ki", "setting": "[1]", "value": 0.9, "unit": "µM"}]}
{"binder": "Mca-PLGP[dK](Dnp)-OH", "note": "[Mca–Pro–Leu–Gly–Pro–D–Lys(DNP)–OH, quenched fluorogenic substrate of Nln]", "values": [{"measurement": "binding result", "setting": "[1]", "value": "binds"}]}
{"binder": "YGGFLRRIRPK", "note": "[dynorphin A (1–11)]", "values": [{"measurement": "binding result", "setting": "[1]", "value": "binds"}]}
{"binder": "{FAM}-GGFLRRIRPKLK", "note": "[FAM-GGFLRRIRPKLK, N-terminally FAM-labeled Dyn A (2–13)]", "values": [{"measurement": "Kd", "setting": "[2]", "value": 1.47, "unit": "µM"}]}
{"binder": "YGGFLRRIRP", "note": "[dynorphin A (1–10)]", "values": [{"measurement": "binding result", "setting": "[1]", "value": "binds"}]}
